Results from the supplement of paper PMC9112550, “Optimization of the antimicrobial peptide Bac7 by deep mutational scanning” (BMC Biology, 2022).

These sequences were tested on Escherichia coli TOP10 (assay: shrunken log2 fold change of peptide-encoding DNA abundance (4.5 h post-induction vs induction); higher = less antimicrobial activity (less host growth inhibition)). Settings: time post-induction: 4.5 h; library: site-saturation at positions 5, 18, 19, 20.
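Also: peptides expressed intracellularly from a pBAD plasmid library in pooled LB shake-flask culture, induced with 0.3% L-arabinose, DNA abundance read by NGS, three biological replicates, DESeq2 with apeglm shrinkage.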

Sequence | shrunken log2 fold change
RRIRHRPPRLPRPRPRPEWAPRP | -0.0848
RRIRSRPPRLPRPRPRPFPWPRP | -0.0834
RRIRFRPPRLPRPRPRPAEYPRP | -0.397
RRIRDRPPRLPRPRPRPLQNPRP | 0.338
RRIRARPPRLPRPRPRPHCPPRP | -0.0475
RRIRVRPPRLPRPRPRPIGAPRP | 0.255
RRIRSRPPRLPRPRPRPDRFPRP | -0.0456
RRIRPRPPRLPRPRPRPIATPRP | -0.159
RRIRYRPPRLPRPRPRPSMHPRP | -0.601
RRIRKRPPRLPRPRPRPECWPRP | 0.744
RRIRCRPPRLPRPRPRPSYPPRP | -0.703
RRIRQRPPRLPRPRPRPEAHPRP | 0.0944
RRIRLRPPRLPRPRPRPTWLPRP | 0.584
RRIRFRPPRLPRPRPRPQSDPRP | 0.0151
RRIRERPPRLPRPRPRPGPVPRP | 0.137
RRIRQRPPRLPRPRPRPQDEPRP | 0.104
RRIRLRPPRLPRPRPRPENLPRP | 0.0256
RRIRIRPPRLPRPRPRPCRHPRP | -0.159
RRIRQRPPRLPRPRPRPRTLPRP | 0.0409
RRIRPRPPRLPRPRPRPEECPRP | -0.105
RRIRCRPPRLPRPRPRPDFRPRP | 0.00204
RRIRARPPRLPRPRPRPFCIPRP | -0.0716
RRIRERPPRLPRPRPRPFICPRP | -0.36
RRIRYRPPRLPRPRPRPGIYPRP | -0.288
RRIRQRPPRLPRPRPRPRGFPRP | 0.0677

Sequence | shrunken log2 fold change
RRIRNRPPRLPRPRPRPKVHPRP | 0.0346
RRIRCRPPRLPRPRPRPPGFPRP | 0.822
RRIRPRPPRLPRPRPRPRKKPRP | 0.0638
RRIRTRPPRLPRPRPRPVRHPRP | -0.041
RRIRCRPPRLPRPRPRPRPCPRP | 0.339
RRIRLRPPRLPRPRPRPKSQPRP | 0.00795
RRIRSRPPRLPRPRPRPRTYPRP | -0.452
RRIRGRPPRLPRPRPRPWPAPRP | 0.763
RRIRRRPPRLPRPRPRPLCRPRP | 0.224
RRIRCRPPRLPRPRPRPWHKPRP | -0.256
RRIRLRPPRLPRPRPRPSCDPRP | -0.417
RRIRKRPPRLPRPRPRPYIVPRP | -0.404
RRIRWRPPRLPRPRPRPGWTPRP | 0.253
RRIRKRPPRLPRPRPRPSETPRP | 0.0356
RRIRFRPPRLPRPRPRPPHLPRP | -0.0216
RRIRNRPPRLPRPRPRPRETPRP | -0.0277
RRIRVRPPRLPRPRPRPWCHPRP | -0.291
RRIRARPPRLPRPRPRPLPPPRP | 0.805
RRIRYRPPRLPRPRPRPIVCPRP | -0.134
RRIRPRPPRLPRPRPRPCGWPRP | 0.403
RRIRRRPPRLPRPRPRPPKHPRP | 0.39
RRIRHRPPRLPRPRPRPELNPRP | -0.098
RRIRCRPPRLPRPRPRPNIVPRP | -0.34
RRIRYRPPRLPRPRPRPRIKPRP | -0.502
RRIRDRPPRLPRPRPRPCTTPRP | -0.00176

Sequence | shrunken log2 fold change
RRIRNRPPRLPRPRPRPLKAPRP | -0.0472
RRIRFRPPRLPRPRPRPACVPRP | -0.0826
RRIRHRPPRLPRPRPRPRYAPRP | -0.0694
RRIRLRPPRLPRPRPRPDDCPRP | 0.014
RRIRGRPPRLPRPRPRPTRCPRP | 0.527
RRIRPRPPRLPRPRPRPIEMPRP | 0.00861
RRIRARPPRLPRPRPRPTLMPRP | 0.768
RRIRERPPRLPRPRPRPKVGPRP | 0.0685
RRIRFRPPRLPRPRPRPFMMPRP | -0.693
RRIRQRPPRLPRPRPRPTYQPRP | -0.109
RRIRRRPPRLPRPRPRPNYRPRP | 0.0832
RRIRCRPPRLPRPRPRPPTHPRP | 0.172
RRIRIRPPRLPRPRPRPRQCPRP | -0.127
RRIRARPPRLPRPRPRPNTHPRP | -0.309
RRIRIRPPRLPRPRPRPWYQPRP | 0.00187
RRIRCRPPRLPRPRPRPKDNPRP | -0.273
RRIRMRPPRLPRPRPRPQHCPRP | -0.458
RRIRQRPPRLPRPRPRPAPIPRP | 0.34
RRIRYRPPRLPRPRPRPELFPRP | -0.0192
RRIRCRPPRLPRPRPRPHLKPRP | -0.322
RRIRPRPPRLPRPRPRPLCMPRP | -0.444
RRIRKRPPRLPRPRPRPAMMPRP | 1.24
RRIRHRPPRLPRPRPRPHGDPRP | -0.01
RRIRFRPPRLPRPRPRPCNNPRP | -0.82
RRIRYRPPRLPRPRPRPSFYPRP | -1.06

Sequence | shrunken log2 fold change
RRIRARPPRLPRPRPRPGIKPRP | -0.0359
RRIRGRPPRLPRPRPRPRYIPRP | -0.222
RRIRYRPPRLPRPRPRPGLMPRP | -0.103
RRIRDRPPRLPRPRPRPAMDPRP | 0.335
RRIRNRPPRLPRPRPRPSPWPRP | 0.0438
RRIRLRPPRLPRPRPRPFRRPRP | -0.0943
RRIRQRPPRLPRPRPRPMLRPRP | -0.138
RRIRYRPPRLPRPRPRPPFTPRP | -0.244
RRIRQRPPRLPRPRPRPIGIPRP | -0.245
RRIRFRPPRLPRPRPRPVGPPRP | 0.405
RRIRMRPPRLPRPRPRPPPHPRP | 1.62
RRIRLRPPRLPRPRPRPPSEPRP | 0.321
RRIRYRPPRLPRPRPRPSSMPRP | -0.999
RRIRARPPRLPRPRPRPECAPRP | 1.5
RRIRRRPPRLPRPRPRPMHQPRP | -0.105
RRIRHRPPRLPRPRPRPTHMPRP | -0.065
RRIRHRPPRLPRPRPRPYYPPRP | -0.228
RRIRVRPPRLPRPRPRPHNTPRP | -0.353
RRIRNRPPRLPRPRPRPNFCPRP | -0.0258
RRIRSRPPRLPRPRPRPGKIPRP | -0.596
RRIRSRPPRLPRPRPRPIKTPRP | 0.000501
RRIRLRPPRLPRPRPRPGWWPRP | 0.155
RRIRPRPPRLPRPRPRPMNSPRP | -0.125
RRIRFRPPRLPRPRPRPRCSPRP | 0.717
RRIRPRPPRLPRPRPRPCLVPRP | -0.179

Sequence | shrunken log2 fold change
RRIRKRPPRLPRPRPRPQMMPRP | -0.0245
RRIRSRPPRLPRPRPRPLQEPRP | 0.144
RRIRYRPPRLPRPRPRPFYWPRP | -1.7
RRIRIRPPRLPRPRPRPIVYPRP | -0.383
RRIRLRPPRLPRPRPRPFGMPRP | -0.205
RRIRERPPRLPRPRPRPCRQPRP | -0.157
RRIRKRPPRLPRPRPRPDMEPRP | 0.092
RRIRPRPPRLPRPRPRPDVTPRP | -0.399
RRIRDRPPRLPRPRPRPRHIPRP | -0.25
RRIRYRPPRLPRPRPRPEKCPRP | -0.26
RRIRRRPPRLPRPRPRPAGVPRP | 0.518
RRIRYRPPRLPRPRPRPKQSPRP | -0.156
RRIRDRPPRLPRPRPRPNQGPRP | 0.125
RRIRVRPPRLPRPRPRPRGIPRP | 0.235
RRIRDRPPRLPRPRPRPAIQPRP | 0.389
RRIRRRPPRLPRPRPRPTDFPRP | -0.00455
RRIRMRPPRLPRPRPRPCTQPRP | -0.111
RRIRRRPPRLPRPRPRPADAPRP | 0.249
RRIRPRPPRLPRPRPRPFSHPRP | -0.402
RRIRLRPPRLPRPRPRPKRLPRP | -0.0581
RRIRCRPPRLPRPRPRPYSMPRP | -0.905
RRIRPRPPRLPRPRPRPHSMPRP | -0.408
RRIRIRPPRLPRPRPRPYGKPRP | -0.108
RRIRMRPPRLPRPRPRPTLCPRP | 0.122
RRIRTRPPRLPRPRPRPEEIPRP | 0.0464

Sequence | shrunken log2 fold change
RRIRYRPPRLPRPRPRPREFPRP | 0.163
RRIRNRPPRLPRPRPRPDFGPRP | -0.0978
RRIRNRPPRLPRPRPRPVATPRP | -0.0503
RRIRPRPPRLPRPRPRPTHWPRP | 0.484
RRIRWRPPRLPRPRPRPVINPRP | -0.0708
RRIRDRPPRLPRPRPRPILWPRP | 0.00705
RRIRSRPPRLPRPRPRPICNPRP | -0.0128
RRIRIRPPRLPRPRPRPHHDPRP | -0.515
RRIRKRPPRLPRPRPRPSLLPRP | -0.0176
RRIRARPPRLPRPRPRPNFNPRP | -0.0686
RRIRMRPPRLPRPRPRPIGEPRP | 0.0433
RRIRPRPPRLPRPRPRPQEYPRP | -0.151
RRIRVRPPRLPRPRPRPKKEPRP | 0.18
RRIRQRPPRLPRPRPRPEMIPRP | -0.0264
RRIRIRPPRLPRPRPRPANDPRP | -0.135
RRIRRRPPRLPRPRPRPCEQPRP | -0.0395
RRIRCRPPRLPRPRPRPPQVPRP | 0.204
RRIRGRPPRLPRPRPRPTVHPRP | 1.77
RRIRKRPPRLPRPRPRPMMQPRP | 0.405
RRIRVRPPRLPRPRPRPWFSPRP | -0.128
RRIRFRPPRLPRPRPRPLECPRP | -0.0348
RRIRHRPPRLPRPRPRPIPLPRP | -0.193
RRIRRRPPRLPRPRPRPITLPRP | -0.0936
RRIRPRPPRLPRPRPRPILWPRP | 0.0824
RRIRSRPPRLPRPRPRPIGKPRP | 0.0386
